Reference: patent US20260250410A1 (SICHUAN HUIYU PHARMACEUTICAL, published 2026)
Positions count from the first letter of the chain named.

B1: 1CP-124 (antibody, human IgG1, kappa, V domains shown)
VH: QVQLVQSGAEVKKPGASVKVSCKASGYNFISYWLHWVRQAPGQGLEWMGGIYPGNTDTTYNQKFKGRVTMTRDTSTSTVYMELSSLRSEDTAVYYCIRYDYDRGMDYWGQGTLVTVSS
VL: DIQMTQSPSSLSASVGDRVTITCRASEDIYYRLAWYQQKPGKAPKLLISGATALETGVPSRFSGSGSGKDYTFTISSLQPEDIATYYCQHYWNIPWTFGQGTKVEIKR
notes: humanized 3C11, human IgG1 kappa
B2: 1CP-125 (antibody, human IgG1, kappa, V domains shown)
VH: B1 VH with R72A
VL: B1 VL
notes: as for B1
B3: 1CP-128 (antibody, human IgG1, kappa, V domains shown)
VH: B1 VH
VL: B1 VL with F73L
notes: as for B1
B4: 1CP-129 (antibody, human IgG1, kappa, V domains shown)
VH: B1 VH with R72A
VL: B1 VL with F73L
notes: as for B1
B5: 1CP-152 (antibody, human IgG1, kappa, V domains shown)
VH: EVQLVESGGGLVQPGRSLRLSCTTSGLTFTHYHMSWVRQAPGKGLEWVAIIRNKAYGYTTDYSASVRGRFTISRDDSKSILYLQMNSLKTEDTAVYYCVREGGYGYDGTFAYWGQGTLVTVSS
VL: DIQMTQSPSSLSASVGDRVTITCRASESVDNYGISFMNWFQQKPGQAPKLLIYAASNQGSGVPSRFSGSGSGTDFTLTISSMQPEDFATYYCQQSKEVPRTFGGGTKVEIKR
notes: humanized 8C9, human IgG1 kappa
B6: 1CP-157 (antibody, human IgG1, kappa, V domains shown)
VH: B5 VH with L45P
VL: B5 VL with A47P
notes: as for B5

Legend:
Experiment in all cases: SPR (Caterra), antigen immobilized
HuCDCP1-B = biological target: T1, HuCDCP1-B (human, UniProt Q9H5V8 343-667)
T1 construct: range 343-667; expressed in HEK-293T, purified by Fc/his tag; also called human CDCP1-B; membrane-proximal region of CDCP1; not shown: Fc or his tag
T1 sequence (looked up): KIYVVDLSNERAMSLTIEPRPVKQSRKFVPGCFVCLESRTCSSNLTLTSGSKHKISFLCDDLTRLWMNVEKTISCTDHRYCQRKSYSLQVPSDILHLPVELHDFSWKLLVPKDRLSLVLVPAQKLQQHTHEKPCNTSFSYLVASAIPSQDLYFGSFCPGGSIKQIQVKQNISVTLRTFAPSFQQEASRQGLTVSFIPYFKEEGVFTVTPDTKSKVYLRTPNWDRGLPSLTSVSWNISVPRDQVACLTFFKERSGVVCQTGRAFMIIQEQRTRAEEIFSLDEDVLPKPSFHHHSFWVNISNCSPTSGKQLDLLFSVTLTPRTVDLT

CynoCDCP1 = biological target: T2, CynoCDCP1 (Macaca fascicularis, UniProt A0A2K5VLA8 30-667)
T2 construct: extracellular domain; also called Macaca fascicularis CDCP1; monkey CDCP1; not shown: Fc or his tag
T2 sequence: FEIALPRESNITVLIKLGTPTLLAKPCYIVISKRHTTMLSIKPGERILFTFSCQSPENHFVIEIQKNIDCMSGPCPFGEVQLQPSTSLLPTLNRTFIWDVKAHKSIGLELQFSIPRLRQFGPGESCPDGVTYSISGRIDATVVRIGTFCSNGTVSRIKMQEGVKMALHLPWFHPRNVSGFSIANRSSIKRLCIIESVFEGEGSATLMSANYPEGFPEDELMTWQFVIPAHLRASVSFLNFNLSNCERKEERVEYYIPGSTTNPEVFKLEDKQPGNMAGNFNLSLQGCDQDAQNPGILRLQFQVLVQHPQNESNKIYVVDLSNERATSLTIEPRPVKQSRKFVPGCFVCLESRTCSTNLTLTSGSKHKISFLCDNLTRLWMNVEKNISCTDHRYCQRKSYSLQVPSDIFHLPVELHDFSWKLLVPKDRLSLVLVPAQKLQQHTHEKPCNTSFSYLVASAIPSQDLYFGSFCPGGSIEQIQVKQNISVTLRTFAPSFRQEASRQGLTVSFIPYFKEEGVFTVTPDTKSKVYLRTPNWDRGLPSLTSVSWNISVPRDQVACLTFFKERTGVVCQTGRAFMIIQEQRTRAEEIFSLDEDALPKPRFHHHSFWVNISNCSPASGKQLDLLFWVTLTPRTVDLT

HuCDCP1-A = biological target: T3, HuCDCP1-A (human, UniProt Q9H5V8 30-430)
T3 construct: range 30-430; expressed in HEK-293T, purified by Fc/his tag; also called human CDCP1-A; membrane-distal region of CDCP1; not shown: Fc or his tag
T3 sequence (looked up): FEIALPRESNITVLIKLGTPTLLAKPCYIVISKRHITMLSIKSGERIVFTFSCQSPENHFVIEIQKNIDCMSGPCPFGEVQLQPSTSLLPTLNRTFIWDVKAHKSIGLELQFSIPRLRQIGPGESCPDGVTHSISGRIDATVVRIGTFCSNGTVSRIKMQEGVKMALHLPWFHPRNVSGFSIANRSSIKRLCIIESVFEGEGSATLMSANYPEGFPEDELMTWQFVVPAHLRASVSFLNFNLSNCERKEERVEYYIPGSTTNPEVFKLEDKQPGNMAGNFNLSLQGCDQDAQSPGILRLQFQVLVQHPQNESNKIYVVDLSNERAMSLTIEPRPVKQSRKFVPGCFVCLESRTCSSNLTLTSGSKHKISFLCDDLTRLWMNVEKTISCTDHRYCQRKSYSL

Row | Binder | Kd (HuCDCP1-B) | Kd (CynoCDCP1) | Kd (HuCDCP1-A)
1 | B1 | 100 nM | 24.2 nM | 132 nM
2 | B2 | 55.1 nM | 2.27 nM | 559 nM
3 | B3 | 109 nM | 47.5 nM | 76 nM
4 | B4 | 157 nM | 53.8 nM | 126 nM
5 | B5 | 110 nM | 2.9 nM | 105 nM
6 | B6 | 359 nM | 2.6 nM | 226 nM
